# Data reported in patent publication US20030103985A1.
# Molecular target: CD44v6 on antigen-positive FaDu cells (human head and neck cancer cell line) (human) (UniProt P16070)
# Test: flow cytometry (FACS) on FaDu cells, FITC-labeled anti-human IgG detection, on ice
binder,measurement,value
"BIWA 4 (antibody, human IgG1, kappa, V domains shown) VH: EVQLVESGGGLVKPGGSLRLSCAASGFTFSSYDMSWVRQAPGKGLEWVSTISSGGSYTYYLDSIKGRFTISRDNAKNSLYLQMNSLRAEDTAVYYCARQGLDYWGRGTLVTVSS VL: EIVLTQSPATLSLSPGERATLSCSASSSINYIYWYQQKPGQAPRLLIYLTSNLASGVPARFSGSGSGTDFTLTISSLEPEDFAVYYCLQWSSNPLTFGGGTKVEIKR",Kd,1 nM
